Laboratory results from publication PMC4376941, “The Gene YALI0E20207g from Yarrowia lipolytica Encodes an N-Acetylglucosamine Kinase Implicated in the Regulated Expression of the Genes from the N-Acetylglucosamine Assimilatory Pathway” (PLoS ONE, 2015).

Substrate: Nc1ncnc2c1ncn2[C@@H]1O[C@H](COP(=O)(O)OP(=O)(O)OP(=O)(O)O)[C@@H](O)[C@H]1O
Assay: purified protein
Assay type: biochemical, Yarrowia lipolytica
Conditions: 4 mM NAGA, 0.1 M Tris-HCl pH 7.5, 30 °C, mean of two preparations

B1: YlNag5 (YALI0E20207p), N-acetylglucosamine (NAGA) kinase (Yarrowia lipolytica CLIB122) (protein)
chain: MSMGDDDRAYHHQMSVIVTAANANLPGHGKGPLVSVSSELLTKESHLMYDFERYVARNPSRFNQKVLDNLRIHHTYTRSSLDTLVNEFLAEITPACANRDAPSMLPSKMGSLPNDSLTGSVLSIDIGGSTLRGSMVDLEKMTVTDSVQHLIPDTVKNYSGSDFFDWIVERIMPLVKDCTATIIPIGLSWSFPIFQPHISSGLIQTMGKGYGVADEIINQDLKELFETHFASHGKTVEVGAILNDSVASLVAANYISNAPLCLILGTGINVSALIPKDQLKKTEQDQDKYIVNCEASLFGQCVSKTCWDLELDQALERPGFQPLESLSSGRYLGEICRLILRDLSKTGFLSRPDVGPYELTTAEVADLETADSGELDYVQDIILATSDRSAALASAFITAIYKLTGSDCESPSIAYDGTMVQKYPNFRPRMQQRLREQGLNVTFVAVEEGTVYGSAIACASQLSQ
notes: N-terminal GST fusion (pGEX-4T-2, plasmid pCL151), full-length ORF, expressed in E. coli BL21(DE3), glutathione-Sepharose eluted, tag not reported cut
B1 gave a Km of 1 mM.
